Patent US20140017242A1, “ANTI-BRADYKININ B2 RECEPTOR (BKB2R) MONOCLONAL ANTIBODY” (Diamedica, Inc., priority 2010, published 2014)
Where a chain is given by its changes, count along the chain named. Blank lines part the entries; values can stand above or below the molecule they belong to. Where no end group is shown, it is not given here.

What was measured:
[1] = biological target: T1, human BKB2R-derived epitope peptide (SEQ ID NO:73), PEG-biotin (human, also: PEG-biotin, site not given here); experiment: BLI (Octet), peptide-PEG-biotin on streptavidin sensor, antibody 250 nM
T1 construct: also called immunogenic human BKB2R peptide fragment
T1 peptide: KEYSDEGHNVTAC
Method: (§1) For the Octet study, antibodies were analyzed by kinetic titration of the antibodies. Antibodies were prepared in kinetic buffer (0.001 M phosphate buffered saline (NaCl 0.0138 M; KCl-0.00027 M); pH 7.4, at 25° C., 0.1 mg/ml BSA, 0.002% Tween and 0.005% Sodium Azide) followed by 1:2 serial dilutions.
(§2) Sensor Prep: Streptavidin biosensors (FortéBio Inc, Menlo Park, Calif.) were coated by incubation in a solution containing a peptide ([…]-PEG-biotin) (Biosyn, Lewisville, Tex.) at 50 μg/ml (300 seconds/1000 rpm shaking). 96 well half-volume plates were used for testing. 90 μl of sample was plated per well. Sensors were allowed to equilibrate to baseline in kinetic buffer (60 seconds/1000 rpm). The sensors were then placed into the various antibody dilutions to allow binding (association) to the probe for 500 seconds/1000 rpm, and measurements were taken. The sensors were then moved into kinetic buffer without antibody for dissociation (500 seconds/1000 rpm), and measurements were taken. Octet system software calculated kinetic constants for on rate/off rate/affinity.
(§3) For test humanized monoclonal antibodies, the highest concentration used was 500 nM followed by 1:2 dilutions. Each concentration was tested twice. The HC and LC represented the mouse original 5F12G1 VH and VL sequences.

[2] = biological target: T1, human BKB2R-derived epitope peptide …; experiment: BLI (Octet), peptide-PEG-biotin on streptavidin sensor, antibody 500 nM
Method: as §1, §2, §3

[3] = biological target: T2, human BKB2R-derived epitope peptide, SE ID NO:73 (Homo sapiens, UniProt P30411); experiment: ForteBio Octet binding kinetics to the BKB2R epitope peptide
T2 construct: purchased Biosyn, Lewisville, Tex
Method: Proteins corresponding to all combinations of humanized or chimeric (5F12G1 VH and VL on human IgG2 backbone) antibodies were tested for binding to the human BKB2R-derived epitope peptide, SE ID NO:73.
A ForteBio (Menlo Park, Calif., USA) Octet® platform was used to analyze the binding affinities and binding characteristics of the humanized monoclonal antibodies to the peptide epitope (SEQ ID NO:73) and compared to the original mouse monoclonal 5F12G1. This platform employed label-free technology for measuring biomolecular interactions by optical analysis of the interference pattern of white light reflected from two surfaces: a layer of immobilized protein on the biosensor tip, and an internal reference layer. Any change in the number of molecules bound to the biosensor tip caused a shift in the interference pattern that was measured in real-time. Binding specificity, and rates of association and dissociation were monitored.
as §1, §2
[…] […] Each concentration was tested twice. The HC and LC represented the mouse original 5F12G1 VH and VL sequences.

- Kd [1]: 2050 nM
- Max Response [1]: 0.174
- koff [1]: 0.719 s⁻¹
- kon [1]: 350000 M⁻¹ s⁻¹
- Kd [2]: 403 nM
- Max Response [2]: 0.161
- koff [2]: 0.976 s⁻¹
- kon [2]: 2.43e+06 M⁻¹ s⁻¹
B1: humanized anti-BKB2R antibody L1/H2 (antibody, human IgG2, kappa, V domains shown)
VH: EVQLVESGGGLVQPGGSLRLSCVASGFTFSDYWMSWVRQAPGKGLEWVAEIRLKSDNYATHYAESVKGRFTISRDDAKNSLYLQMNSLRAEDTAVYYCTRDYYAMEYWGQGTLVTVSS
VL: DIVMTQSPLSLPVTPGEPASISCRSSQTIVHSNGKTYLEWYLQKPGQSPQLLIYKVSNRFSGVPDRFSGSGSGTDFTLKISRVEAEDVGVYYCFQASHVPYTFGQGTKLEIKR

B2: H37/L39: humanized anti-BKB2R mAb, heavy chain H37 (SEQ ID NO:5), light chain L39 (SEQ ID NO:12) (antibody, V domains shown)
VH: B1 VH with V23A, S35D, A49G, E64A, A77S, R89K, A90T, L113T
VL: DVVMTQTPLSLSVTPGQPASISCKSSQTIVHSNGKTYLEWYLQKPGQSPQLLIYKVSNRFSGVPDRFSGSGSGTDFTLKISRVEAEDVGVYYCFQASHVPYTFGQGTKLEIK
modifications: Humanized H37 Heavy Chain Variable Region VH; Humanized L39 Light Chain Region VL
- kdis ([3]; Conc. 500 nM): 1.98 s⁻¹
- kon ([3]; Conc. 500 nM): 1.11e+06 M⁻¹ s⁻¹

B3: L1/H1: humanized anti-BKB2R mAb, light chain L1 (SEQ ID NO:8), heavy chain H1 (SEQ ID NO:3), human IgG2/kappa (antibody, V domains shown)
VH: B1 VH with V23A, D76N
VL: B2 VL with V2I, T7S, S12P, Q17E, K24R
modifications: Humanized H1 Heavy Chain Variable Region VH; Humanized L1 Light Chain Variable Region VL
- kdis ([3]; Conc. 250 nM): 0.701 s⁻¹
- kon ([3]; Conc. 250 nM): 1.59e+06 M⁻¹ s⁻¹
- kdis ([3]; Conc. 500 nM): 0.942 s⁻¹
- kon ([3]; Conc. 500 nM): 404000 M⁻¹ s⁻¹

B4: L2/H2: humanized anti-BKB2R mAb, light chain L2 (SEQ ID NO:9), heavy chain H2 (SEQ ID NO:4) (antibody, V domains shown)
VH: B1 VH
VL: B2 VL with V2I, T7S, S12P, Q17E, K24R, D75E
modifications: Humanized H2 Heavy Chain Variable Region VH; Humanized L2 Light Chain Variable Region VL
- kdis ([3]; Conc. 250 nM): 0.0359 s⁻¹
- kon ([3]; Conc. 250 nM): 1.76e+06 M⁻¹ s⁻¹
- kdis ([3]; Conc. 500 nM): 0.0223 s⁻¹
- kon ([3]; Conc. 500 nM): 992000 M⁻¹ s⁻¹

B5: H37/L37: humanized anti-BKB2R mAb, heavy chain H37 (SEQ ID NO:5), light chain L37 (SEQ ID NO:10) (antibody, V domains shown)
VH: B1 VH with V23A, S35D, A49G, E64A, A77S, R89K, A90T, L113T
VL: B2 VL with V2I, E39Y, N58S
modifications: Humanized H37 Heavy Chain Variable Region VH; Humanized L37 Light Chain Variable Region VL
- kdis ([3]; Conc. 500 nM): 1.18 s⁻¹
- kon ([3]; Conc. 500 nM): 1.55e+06 M⁻¹ s⁻¹

- kdis ([3]; Conc. 250 nM): 0.00438 s⁻¹
- kon ([3]; Conc. 250 nM): 216000 M⁻¹ s⁻¹
- kdis ([3]; Conc. 500 nM): 0.00507 s⁻¹
- kon ([3]; Conc. 500 nM): 1.21e+06 M⁻¹ s⁻¹
B6: L2/H1: humanized anti-BKB2R mAb, light chain L2 (SEQ ID NO:9), heavy chain H1 (SEQ ID NO:3) (antibody, V domains shown)
VH: B1 VH with V23A, D76N
VL: B2 VL with V2I, T7S, S12P, Q17E, K24R, D75E
modifications: Humanized H1 Heavy Chain Variable Region VH; Humanized L2 Light Chain Variable Region VL

- kdis ([3]; Conc. 250 nM): 0.719 s⁻¹
- kon ([3]; Conc. 250 nM): 350000 M⁻¹ s⁻¹
- kdis ([3]; Conc. 500 nM): 0.976 s⁻¹
- kon ([3]; Conc. 500 nM): 2.43e+06 M⁻¹ s⁻¹
B7: L1/H2: humanized anti-BKB2R mAb, light chain L1 (SEQ ID NO:8), heavy chain H2 (SEQ ID NO:4) (antibody, V domains shown)
VH: B1 VH
VL: B2 VL with V2I, T7S, S12P, Q17E, K24R
modifications: Humanized H2 Heavy Chain Variable Region VH; Humanized L1 Light Chain Variable Region VL

- kdis ([3]; Conc. 500 nM): 29.4 s⁻¹
- kon ([3]; Conc. 500 nM): 9.44e+06 M⁻¹ s⁻¹
B8: H38/L37: humanized anti-BKB2R mAb, heavy chain H38 (SEQ ID NO:6), light chain L37 (SEQ ID NO:10) (antibody, V domains shown)
VH: B1 VH with V5L, R19K, V23A, A24V, A49S, E64D, A77S, S80T
VL: B2 VL with V2I, E39Y, N58S
modifications: Humanized H38 Heavy Chain Variable Region VH; Humanized L37 Light Chain Variable Region VL

B9: H37/L38: humanized anti-BKB2R mAb, heavy chain H37 (SEQ ID NO:5), light chain L38 (SEQ ID NO:11) (antibody, V domains shown)
VH: B1 VH with V23A, S35D, A49G, E64A, A77S, R89K, A90T, L113T
VL: B2 VL with V2I, S12P, P15S, Q17E, K24R, E39D, F60A, Q105G, L109V
modifications: Humanized H37 Heavy Chain Variable Region VH; Humanized L38 Light Chain Variable Region VL
- kdis ([3]; Conc. 500 nM): 2.08 s⁻¹
- kon ([3]; Conc. 500 nM): 9.47e+06 M⁻¹ s⁻¹

- kdis ([3]; Conc. 250 nM): 0.728 s⁻¹
- kon ([3]; Conc. 250 nM): 239000 M⁻¹ s⁻¹
- kdis ([3]; Conc. 500 nM): 2.16 s⁻¹
- kon ([3]; Conc. 500 nM): 543000 M⁻¹ s⁻¹
B10: L1/HC: humanized light chain L1 (SEQ ID NO:8) with HC, the mouse original 5F12G1 VH (antibody)
heavy: EVKLEESGGGLVQPGGSMKLSCVVSGFTFSDYWMSWVRHSPEMGLEWVAEIRLKSDNYATHYAESVKGRFTISRDDSKSRLYLQINSLRGEDTGIYYCTRDYYAMEYWGQGTSVTVSS
light: DIVMTQSPLSLPVTPGEPASISCRSSQTIVHSNGKTYLEWYLQKPGQSPQLLIYKVSNRFSGVPDRFSGSGSGTDFTLKISRVEAEDVGVYYCFQASHVPYTFGQGTKLEIKRTVAAPSVFIFPPSDEQLKSGTASVVCLLNNFYPREAKVQWKVDNALQSGNSQESVTEQDSKDSTYSLSSTLTLSKADYEKHKVYACEVTHQGLSSPVTKSFNRGEC
modifications: left off: a dimerising Fc or GST

- kdis ([3]; Conc. 250 nM): 0.732 s⁻¹
- kon ([3]; Conc. 250 nM): 2.17e+06 M⁻¹ s⁻¹
- kdis ([3]; Conc. 500 nM): 0.655 s⁻¹
- kon ([3]; Conc. 500 nM): 145000 M⁻¹ s⁻¹
B11: L2/HC: humanized light chain L2 (SEQ ID NO:9) with HC, the mouse original 5F12G1 VH (antibody)
heavy: B10 heavy
light: B10 light with D75E
modifications: left off: a dimerising Fc or GST

B12: H39/L38: humanized anti-BKB2R mAb, heavy chain H39 (SEQ ID NO:7), light chain L38 (SEQ ID NO:11) (antibody, V domains shown)
VH: EVKLVESGGGLVQPGGSLRLSCAVSGFTFSDYWMDWVRQAPGKGLEWVAEIRLKSDNYATHYAASVKGRFTISRDDSKSRLYLQMNSLKTEDTAVYYCTRDYYAMEYWGQGTTVTVSS
VL: B2 VL with V2I, S12P, P15S, Q17E, K24R, E39D, F60A, Q105G, L109V
modifications: Humanized H39 Heavy Chain Variable Region VH; Humanized L38 Light Chain Variable Region VL
- kdis ([3]; Conc. 500 nM): 4.9 s⁻¹
- kon ([3]; Conc. 500 nM): 6.44e+06 M⁻¹ s⁻¹

B13: H39/L39: humanized anti-BKB2R mAb, heavy chain H39 (SEQ ID NO:7), light chain L39 (SEQ ID NO:12) (antibody, V domains shown)
VH: B12 VH
VL: B2 VL
modifications: Humanized H39 Heavy Chain Variable Region VH; Humanized L39 Light Chain Region VL
- kdis ([3]; Conc. 500 nM): 1.26 s⁻¹
- kon ([3]; Conc. 500 nM): 729000 M⁻¹ s⁻¹
